Results taken from patent US11160869B2 (priority 2019, dated 2021).

Legend:
[1] = Liquid formulation screens: freeze/thaw, shear stress, short-term stability; format: physicochemical; conditions: 20 mg/mL, formulations of TABLE 11
Procedure: Formulation development to establish the lyophilization buffer was performed by initially screening the freeze-thaw and shear-induced liquid stability of the target construct following dialysis into combinations of several components outlined below:
Using these two formulations, in order to ensure that the UF/DF step would function as intended and that freezing at the beginning of the lyophilization process would be acceptable, a final liquid formulation freeze/thaw screen and short-term stability study was conducted at higher protein concentrations as outlined in TABLE 11 below.
This formulation was recommended to proceed as the buffer to be used in the UF/DF formulation step prior to lyophilization.

[2] = Purification with and without sulfitolysis: SEC-HPLC forms, yield and dimer recovery after Capto Q; conditions: for Dimer Purity after Capto Q Chromatography: Capto Q load 1680 mg; for Dimer Purity: after Capto Q chromatography
Procedure: Refolding in both processes was carried out at 4° C. The refolding solution used in both processes contained 1 mM reduced glutathione, 0.5 mM oxidized glutathione, 1M Arginine-HCl, 250 mM sucrose, 100 mM Tris pH 8.5 at 4° C., and 2 mM EDTA.

[3] = system: polarized gut epithelial cells; test: In vivo transcytosis across polarized gut epithelial cells, rat jejunum, microscopy; set-up: species or system Wistar rats; conditions: luminal application to rat jejunum
Procedure: In vivo transcytosis was tested using male Wistar rats. Male Wistar rats were housed 3-5 per cage with a 12/12 h light/dark cycle and were about 225-275 g (approximately 6-8 weeks old) when placed on study. Experiments were conducted during the light phase using a non-recovery protocol that uses continuous isoflurane anesthesia. A 4-5 cm midline abdominal incision that exposed mid-jejunum regions was conducted. Stock solutions at 3.86×10^−5 M of delivery construct were prepared in phosphate buffered saline (PBS), with 50 μL (per 250 g rat) being administered by intraluminal injection (ILI) using a 29-gauge needle. The injection site mesentery was then marked with a permanent marker. […]
The delivery construct (SEQ ID NO: 5) included the cholix carrier with SEQ ID NO: 4 (and further including an N-terminal methionine) coupled to the IL-10 payload having an amino acid set forth in SEQ ID NO: 2 via a spacer having an amino acid set forth in SEQ ID NO: 6. Green fluorescence indicates the presence of IL-10 (via staining with an anti-IL-10 antibody). Blue fluorescence indicates DAPI staining, which labels DNA, and red fluorescence indicates the presence of CK-8 (cytokeratin-8) with which a cholix-derived carrier can co-localize (e.g., in a supranuclear region of an epithelial cell) during transcytosis. […]

STAT3 [4] = test: pSTAT3 induction and hIL-10 in intestinal tissue 40 min after oral gavage, immunofluorescence and image analysis; format: in vivo, rat; conditions: 40 min post oral gavage
Procedure: This observation is consistent with findings in mice that intestinal epithelial cells can express IL-10 receptors at their apical surface under certain conditions associated with development and maintenance of barrier function. […] In order to quantify how test articles affected intestinal IL-10 signal transduction pathways, image analysis was performed: high-throughput image batches were collected, segmented by epithelial versus lamina propria localization, and then by cellular features.

STAT3 [5] = test: pSTAT3/total STAT3 in colon tissue of non-inflamed mice (ELISA MSD); format: in vivo; conditions: construct 1 mg/kg; rhIL-10 0.9 mg/kg; oral
IL-1Ra, IL-1β = test: RT-PCR of IL-1Ra and IL-1β in near-distal colon; format: in vivo, mice; conditions: 9 mg/kg
[6] = Plasma rhIL-10, IL-10 delivery construct and IL-1Ra immunoassays, DSS study; format: in vivo, mice; conditions: 0.3 and 3 mg/kg, 4 hours after final dose
Description: Plasma cytokines were quantified using the V-plex Proinflammatory Panel 1 Mouse Kit. Plasma IL-1Ra was quantitated by sandwich immunoassay using an antibody pair from the Mouse IL-1Ra/IL-1F3 DuoSet ELISA (R&D Systems #DY480), Streptavidin SULFO-TAG Labeled (MSD #R32AD-1), Multi-Array 96 Plate Pack, SECTOR Plate MSD #L15XA-3 and Read Buffer T (4×) (MSD #R92TC-2). Samples were read on the QuickPlex SQ 120 plate reader (Meso Scale Discovery, Rockville, Md.).
The Human IL-10 Base kit (MSD #K151AOA-4) was used to measure rhIL-10 in plasma. […] The MSD Small Spot IL-10 plate was incubated with Diluent 41 (25 μL/well) for 30 minutes at room temperature with shaking before use. Controls and samples were diluted 2-fold with pooled CD-1 mouse plasma (BioIVT, custom order), and the calibration standards were also prepared in mouse plasma. Standards, diluted samples and controls were added (25 μL/well), and the plate was incubated for 2 hours at room temperature with shaking. The plate was washed 3 times with phosphate buffered saline with Tween-20 (PBST), and 25 μL/well 1×SULFO TAG Anti-human IL-10 Antibody (prepared in Diluent 45) was added to the plate. The plate was incubated for 1 hour at room temperature with shaking. Following a wash step, 150 μL/well of 2×MSD Read buffer was added, and the plate was read in the MSD Sector Imager 600 plate reader.

STAT3 [7] = test: In vivo pSTAT3 induction in lamina propria, immunofluorescence confocal microscopy; set-up: species or system Balb/C mice
Procedure: In vivo studies in mice were performed where the biological activity of human IL-10 following transcytosis was assessed for its ability to stimulate the mouse IL-10 receptor and increase phosphorylation of STAT3 (pSTAT3) in cells within the lamina propria.
An extensive amount of rhIL-10 (SEQ ID NO: 5) was trafficked through enterocytes. Additionally, there were a population of lymphocyte-like cells at the basolateral surface of enterocytes and within the lamina propria that were pSTAT3 positive.
Entire intestines of mice were isolated and processed as a “swiss role” and localization of pSTAT3 was detected by immunofluorescence confocal microscopy (FIG. 110).

[8] = No Sulfitolysis of SIB (2x UF/DF at 4° C.), SEC-HPLC before AEX
[9] = No Sulfitolysis of SIB (2x UF/DF for 66 h RT), SEC-HPLC before AEX
[10] = No Sulfitolysis of SIB (97 mL Capto Q)
[11] = Sulfitolysis of SIB (97 mL Capto Q)
[12] = Sulfitolysis of SIB (TFF-2 for 20 h at RT), SEC-HPLC after UF/DF, before AEX

B1: IL-10 delivery construct: recombinant homodimeric fusion protein: N-terminal methionine, cholix386 domain, polyGlySer spacer, recombinant human IL-10 (protein)
chain: MVEEALNIFDECRSPCSLTPEPGKPIQSKLSIPSDVVLDEGVLYYSMTINDEQNDIKDEDKGESIITIGEFATVRATRHYVNQDAPFGVIHLDITTENGTKTYSYNRKEGEFAINWLVPIGEDSPASIKISVDELDQQRNIIEVPKLYSIDLDNQTLEQWKTQGNVSFSVTRPEHNIAISWPSVSYKAAQKEGSRHKRWAHWHTGLALCWLVPMDAIYNYITQQNCTLGDNWFGGSYETVAGTPKVITVKQGIEQKPVEQRIHFSKGNAMSALAAHRVCGVPLETLARSRKPRDLTDDLSCAYQAQNIVSLFVATRILFSHLDSVFTLNLDEQEPEVAERLSDLRRINENNPGMVTQVLTVARQIYNDYVTHHPGLTPEQTSAGAQAGGGGSGGGGSGGGGSPGQGTQSENSCTHFPGNLPNMLRDLRDAFSRVKTFFQMKDQLDNLLLKESLLEDFKGYLGCQALSEMIQFYLEEVMPQAENQDPDIKAHVNSLGENLKTLRLRLRRCHRFLPCENKSKAVEQVKNAFNKLQEKGIYKAMSEFDIFINYIEAYMTMKIRN
modifications: homodimer
- aggregation during freeze/thaw or at 1 week at 4 C [1]: did not show any significant increases in aggregation
- Aggregate % [2, 8]: 36%
- Monomer % [2, 8]: 22%
- Aggregate % [2, 9]: 57%
- Monomer % [2, 9]: 11%
- Dimer Purity after Capto Q Chromatography [2, 10]: 84%
- Dimer Purity [2, 10]: 84%
- Dimer Purity after Capto Q Chromatography [2, 11]: 74%
- Dimer Purity [2, 11]: 74%
- Aggregate % [2, 12]: 68%
- Monomer % [2, 12]: 8%
- Dimer Purity ([2]; Sulfitolysis of SIB (average of 3)): 82-83%
- earliest time of IL-10 payload transport into the lamina propria [3]: ≤ 1 min
- hIL-10 and pSTAT3 in intestinal tissue (STAT3 [4]): extensive amounts of hIL-10 and a large number of cells that were positive for pSTAT3 within the lamina propria
- increase in ratio of pSTAT3 to total STAT3 (STAT3 [5]): approximately 50%
- IL-1Ra/IL-1β mRNA ratio in colonic tissue (IL-1Ra, IL-1β): increase
- mRNA expression of IL-1Ra in near-distal colonic tissue (IL-1Ra, IL-1β): trend towards augmented mRNA expression of IL-1Ra
- plasma rhIL-10 relative to background of Vehicle treatment [6]: 10-300 fold higher
- phosphorylation of STAT3 in cells within the lamina propria (STAT3 [7]; intraluminal injection into jejunum): increased phosphorylation of STAT3
- IL-10 activity (pSTAT3) along the intestine (STAT3 [7]; oral gavage): demonstrated along the length of intestine
